Results as given in PMC10625650, “The WW domain of IQGAP1 binds directly to the p110α catalytic subunit of PI 3-kinase” (The Biochemical journal, 2023).

Target: T1, full-length untagged human p110α (catalytic subunit of PI 3-kinase) (human, UniProt P42336 1-1068, [35S]-methionine label)
T1 construct: human p110α (PIK3CA), full length, untagged; also called native p110α; unaltered wild-type p110α
Experiment: pull-down; 25 μg GST or GST fusion protein purified from bacteria, bound to glutathione-Sepharose beads; 1 pmol 35S-labelled in vitro translated protein (partially purified by ammonium sulfate precipitation); binding buffer 20 mM Tris–HCl pH 7.1, 125 mM KOAc, 0.5 mM EDTA, 1 mM DTT, 0.1% Tween20, 12.5% glycerol; sedimentation, SDS–PAGE, autoradiography or phosphorimaging; percent binding against input
Conditions: one partner purified

T1 sequence (P42336 whole entry): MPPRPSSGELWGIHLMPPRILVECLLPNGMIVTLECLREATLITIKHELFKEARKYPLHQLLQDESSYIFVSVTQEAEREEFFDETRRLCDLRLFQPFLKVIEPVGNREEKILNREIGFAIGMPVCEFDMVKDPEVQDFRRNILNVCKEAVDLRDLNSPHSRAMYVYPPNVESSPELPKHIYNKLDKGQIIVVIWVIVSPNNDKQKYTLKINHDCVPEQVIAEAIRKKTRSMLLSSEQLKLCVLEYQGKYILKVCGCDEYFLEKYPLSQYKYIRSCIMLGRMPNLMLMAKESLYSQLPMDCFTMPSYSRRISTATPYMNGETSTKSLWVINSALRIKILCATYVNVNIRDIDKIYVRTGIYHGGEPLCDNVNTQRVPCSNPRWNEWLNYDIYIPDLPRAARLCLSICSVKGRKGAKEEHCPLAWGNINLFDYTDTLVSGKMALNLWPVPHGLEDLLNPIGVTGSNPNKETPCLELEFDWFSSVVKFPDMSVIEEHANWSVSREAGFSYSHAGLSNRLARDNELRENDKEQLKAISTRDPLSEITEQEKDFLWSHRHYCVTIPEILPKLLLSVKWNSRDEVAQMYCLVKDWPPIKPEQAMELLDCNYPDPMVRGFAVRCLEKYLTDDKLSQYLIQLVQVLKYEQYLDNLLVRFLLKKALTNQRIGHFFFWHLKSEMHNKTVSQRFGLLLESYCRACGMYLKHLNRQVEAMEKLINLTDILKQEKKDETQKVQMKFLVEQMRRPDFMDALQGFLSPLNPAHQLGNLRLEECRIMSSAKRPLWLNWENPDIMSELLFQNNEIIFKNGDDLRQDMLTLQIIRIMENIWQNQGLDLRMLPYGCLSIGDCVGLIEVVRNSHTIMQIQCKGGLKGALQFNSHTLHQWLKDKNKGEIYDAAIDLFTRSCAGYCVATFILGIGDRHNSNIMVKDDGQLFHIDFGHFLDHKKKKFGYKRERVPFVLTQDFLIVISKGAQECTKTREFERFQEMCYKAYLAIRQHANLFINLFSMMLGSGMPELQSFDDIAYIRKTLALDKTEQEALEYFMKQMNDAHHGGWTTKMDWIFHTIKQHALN

B1: GST-WW (WW domain of human IQGAP1 fused to GST) (domain or fragment, UniProt P46940 679-719, looked up)
chain: GDNNSKWVKHWVKGGYYYYHNLETQEGGWDEPPNFVQNSMQ
notes: human IQGAP1, residues 679-719 holding the WW domain (the results name the WW domain as residues 684-710); in plasmid pGEXLB; also called GST-WW fusion protein; wild-type GST-WW; source: expressed in bacteria, purified on glutathione-Sepharose; not shown: GST (Schistosoma japonicum), N-terminal, kept
**Q.** Which Kd does the source give for B1 here?
**A.** 130 µM
